Measurements from patent US8748182B2, “Mutant proteins and methods for producing them” (Heptares Therapeutics Limited, priority 2007, dated 2014).

B1: T294A: NTR point mutant (protein, UniProt P20789 1-424, looked up, variant T294A)
Neurotensin receptor type 1: MHLNSSVPQGTPGEPDAQPFSGPQSEMEATFLALSLSNGSGNTSESDTAGPNSDLDVNTDIYSKVLVTAIYLALFVVGTVGNSVTAFTLARKKSLQSLQSTVHYHLGSLALSDLLILLLAMPVELYNFIWVHHPWAFGDAGCRGYYFLRDACTYATALNVASLSVERYLAICHPFKAKTLMSRSRTKKFISAIWLASALLAIPMLFTMGLQNRSGDGTHPGGLVCTPIVDTATVKVVIQVNTFMSFLFPMLVISILNTVIANKLTVMVHQAAEQGRVCTVGTHNGLEHSTFNMAIEPGRVQALRHGVLVLRAVVIAFVVCWLPYHVRRLMFCYISDEQWTTFLFDFYHYFYMLTNALFYVSSAINPILYNLVSANFRQVFLSTLACLCPGWRHRRKKRPTFSRKPNSMSSNHAFSTSATRETLY
B2: A69L: NTR point mutant (protein, UniProt P20789 1-424, looked up, variant A69L)
Neurotensin receptor type 1: MHLNSSVPQGTPGEPDAQPFSGPQSEMEATFLALSLSNGSGNTSESDTAGPNSDLDVNTDIYSKVLVTLIYLALFVVGTVGNSVTAFTLARKKSLQSLQSTVHYHLGSLALSDLLILLLAMPVELYNFIWVHHPWAFGDAGCRGYYFLRDACTYATALNVASLSVERYLAICHPFKAKTLMSRSRTKKFISAIWLASALLAIPMLFTMGLQNRSGDGTHPGGLVCTPIVDTATVKVVIQVNTFMSFLFPMLVISILNTVIANKLTVMVHQAAEQGRVCTVGTHNGLEHSTFNMTIEPGRVQALRHGVLVLRAVVIAFVVCWLPYHVRRLMFCYISDEQWTTFLFDFYHYFYMLTNALFYVSSAINPILYNLVSANFRQVFLSTLACLCPGWRHRRKKRPTFSRKPNSMSSNHAFSTSATRETLY
B3: S373A: NTR point mutant (protein, UniProt P20789 1-424, looked up, variant S373A)
Neurotensin receptor type 1: MHLNSSVPQGTPGEPDAQPFSGPQSEMEATFLALSLSNGSGNTSESDTAGPNSDLDVNTDIYSKVLVTAIYLALFVVGTVGNSVTAFTLARKKSLQSLQSTVHYHLGSLALSDLLILLLAMPVELYNFIWVHHPWAFGDAGCRGYYFLRDACTYATALNVASLSVERYLAICHPFKAKTLMSRSRTKKFISAIWLASALLAIPMLFTMGLQNRSGDGTHPGGLVCTPIVDTATVKVVIQVNTFMSFLFPMLVISILNTVIANKLTVMVHQAAEQGRVCTVGTHNGLEHSTFNMTIEPGRVQALRHGVLVLRAVVIAFVVCWLPYHVRRLMFCYISDEQWTTFLFDFYHYFYMLTNALFYVSSAINPILYNLVAANFRQVFLSTLACLCPGWRHRRKKRPTFSRKPNSMSSNHAFSTSATRETLY
B4: F342A: NTR point mutant (protein, UniProt P20789 1-424, looked up, variant F342A)
Neurotensin receptor type 1: MHLNSSVPQGTPGEPDAQPFSGPQSEMEATFLALSLSNGSGNTSESDTAGPNSDLDVNTDIYSKVLVTAIYLALFVVGTVGNSVTAFTLARKKSLQSLQSTVHYHLGSLALSDLLILLLAMPVELYNFIWVHHPWAFGDAGCRGYYFLRDACTYATALNVASLSVERYLAICHPFKAKTLMSRSRTKKFISAIWLASALLAIPMLFTMGLQNRSGDGTHPGGLVCTPIVDTATVKVVIQVNTFMSFLFPMLVISILNTVIANKLTVMVHQAAEQGRVCTVGTHNGLEHSTFNMTIEPGRVQALRHGVLVLRAVVIAFVVCWLPYHVRRLMFCYISDEQWTTALFDFYHYFYMLTNALFYVSSAINPILYNLVSANFRQVFLSTLACLCPGWRHRRKKRPTFSRKPNSMSSNHAFSTSATRETLY
B5: V309A: NTR point mutant (protein, UniProt P20789 1-424, looked up, variant V309A)
Neurotensin receptor type 1: MHLNSSVPQGTPGEPDAQPFSGPQSEMEATFLALSLSNGSGNTSESDTAGPNSDLDVNTDIYSKVLVTAIYLALFVVGTVGNSVTAFTLARKKSLQSLQSTVHYHLGSLALSDLLILLLAMPVELYNFIWVHHPWAFGDAGCRGYYFLRDACTYATALNVASLSVERYLAICHPFKAKTLMSRSRTKKFISAIWLASALLAIPMLFTMGLQNRSGDGTHPGGLVCTPIVDTATVKVVIQVNTFMSFLFPMLVISILNTVIANKLTVMVHQAAEQGRVCTVGTHNGLEHSTFNMTIEPGRVQALRHGVLALRAVVIAFVVCWLPYHVRRLMFCYISDEQWTTFLFDFYHYFYMLTNALFYVSSAINPILYNLVSANFRQVFLSTLACLCPGWRHRRKKRPTFSRKPNSMSSNHAFSTSATRETLY
B6: V313A: NTR point mutant (protein, UniProt P20789 1-424, looked up, variant V313A)
Neurotensin receptor type 1: MHLNSSVPQGTPGEPDAQPFSGPQSEMEATFLALSLSNGSGNTSESDTAGPNSDLDVNTDIYSKVLVTAIYLALFVVGTVGNSVTAFTLARKKSLQSLQSTVHYHLGSLALSDLLILLLAMPVELYNFIWVHHPWAFGDAGCRGYYFLRDACTYATALNVASLSVERYLAICHPFKAKTLMSRSRTKKFISAIWLASALLAIPMLFTMGLQNRSGDGTHPGGLVCTPIVDTATVKVVIQVNTFMSFLFPMLVISILNTVIANKLTVMVHQAAEQGRVCTVGTHNGLEHSTFNMTIEPGRVQALRHGVLVLRAAVIAFVVCWLPYHVRRLMFCYISDEQWTTFLFDFYHYFYMLTNALFYVSSAINPILYNLVSANFRQVFLSTLACLCPGWRHRRKKRPTFSRKPNSMSSNHAFSTSATRETLY
B7: N370A: NTR point mutant (protein, UniProt P20789 1-424, looked up, variant N370A)
Neurotensin receptor type 1: MHLNSSVPQGTPGEPDAQPFSGPQSEMEATFLALSLSNGSGNTSESDTAGPNSDLDVNTDIYSKVLVTAIYLALFVVGTVGNSVTAFTLARKKSLQSLQSTVHYHLGSLALSDLLILLLAMPVELYNFIWVHHPWAFGDAGCRGYYFLRDACTYATALNVASLSVERYLAICHPFKAKTLMSRSRTKKFISAIWLASALLAIPMLFTMGLQNRSGDGTHPGGLVCTPIVDTATVKVVIQVNTFMSFLFPMLVISILNTVIANKLTVMVHQAAEQGRVCTVGTHNGLEHSTFNMTIEPGRVQALRHGVLVLRAVVIAFVVCWLPYHVRRLMFCYISDEQWTTFLFDFYHYFYMLTNALFYVSSAINPILYALVSANFRQVFLSTLACLCPGWRHRRKKRPTFSRKPNSMSSNHAFSTSATRETLY
B8: L310A: NTR point mutant (protein, UniProt P20789 1-424, looked up, variant L310A)
Neurotensin receptor type 1: MHLNSSVPQGTPGEPDAQPFSGPQSEMEATFLALSLSNGSGNTSESDTAGPNSDLDVNTDIYSKVLVTAIYLALFVVGTVGNSVTAFTLARKKSLQSLQSTVHYHLGSLALSDLLILLLAMPVELYNFIWVHHPWAFGDAGCRGYYFLRDACTYATALNVASLSVERYLAICHPFKAKTLMSRSRTKKFISAIWLASALLAIPMLFTMGLQNRSGDGTHPGGLVCTPIVDTATVKVVIQVNTFMSFLFPMLVISILNTVIANKLTVMVHQAAEQGRVCTVGTHNGLEHSTFNMTIEPGRVQALRHGVLVARAVVIAFVVCWLPYHVRRLMFCYISDEQWTTFLFDFYHYFYMLTNALFYVSSAINPILYNLVSANFRQVFLSTLACLCPGWRHRRKKRPTFSRKPNSMSSNHAFSTSATRETLY
B9: V360A: NTR point mutant (protein, UniProt P20789 1-424, looked up, variant V360A)
Neurotensin receptor type 1: MHLNSSVPQGTPGEPDAQPFSGPQSEMEATFLALSLSNGSGNTSESDTAGPNSDLDVNTDIYSKVLVTAIYLALFVVGTVGNSVTAFTLARKKSLQSLQSTVHYHLGSLALSDLLILLLAMPVELYNFIWVHHPWAFGDAGCRGYYFLRDACTYATALNVASLSVERYLAICHPFKAKTLMSRSRTKKFISAIWLASALLAIPMLFTMGLQNRSGDGTHPGGLVCTPIVDTATVKVVIQVNTFMSFLFPMLVISILNTVIANKLTVMVHQAAEQGRVCTVGTHNGLEHSTFNMTIEPGRVQALRHGVLVLRAVVIAFVVCWLPYHVRRLMFCYISDEQWTTFLFDFYHYFYMLTNALFYASSAINPILYNLVSANFRQVFLSTLACLCPGWRHRRKKRPTFSRKPNSMSSNHAFSTSATRETLY
B10: L308A: NTR point mutant (protein, UniProt P20789 1-424, looked up, variant L308A)
Neurotensin receptor type 1: MHLNSSVPQGTPGEPDAQPFSGPQSEMEATFLALSLSNGSGNTSESDTAGPNSDLDVNTDIYSKVLVTAIYLALFVVGTVGNSVTAFTLARKKSLQSLQSTVHYHLGSLALSDLLILLLAMPVELYNFIWVHHPWAFGDAGCRGYYFLRDACTYATALNVASLSVERYLAICHPFKAKTLMSRSRTKKFISAIWLASALLAIPMLFTMGLQNRSGDGTHPGGLVCTPIVDTATVKVVIQVNTFMSFLFPMLVISILNTVIANKLTVMVHQAAEQGRVCTVGTHNGLEHSTFNMTIEPGRVQALRHGVAVLRAVVIAFVVCWLPYHVRRLMFCYISDEQWTTFLFDFYHYFYMLTNALFYVSSAINPILYNLVSANFRQVFLSTLACLCPGWRHRRKKRPTFSRKPNSMSSNHAFSTSATRETLY
B11: G306A: NTR point mutant (protein, UniProt P20789 1-424, looked up, variant G306A)
Neurotensin receptor type 1: MHLNSSVPQGTPGEPDAQPFSGPQSEMEATFLALSLSNGSGNTSESDTAGPNSDLDVNTDIYSKVLVTAIYLALFVVGTVGNSVTAFTLARKKSLQSLQSTVHYHLGSLALSDLLILLLAMPVELYNFIWVHHPWAFGDAGCRGYYFLRDACTYATALNVASLSVERYLAICHPFKAKTLMSRSRTKKFISAIWLASALLAIPMLFTMGLQNRSGDGTHPGGLVCTPIVDTATVKVVIQVNTFMSFLFPMLVISILNTVIANKLTVMVHQAAEQGRVCTVGTHNGLEHSTFNMTIEPGRVQALRHAVLVLRAVVIAFVVCWLPYHVRRLMFCYISDEQWTTFLFDFYHYFYMLTNALFYVSSAINPILYNLVSANFRQVFLSTLACLCPGWRHRRKKRPTFSRKPNSMSSNHAFSTSATRETLY

Assay: Thermostability of neurotensin receptor (NTR) mutants (3H-neurotensin binding)
Type: physicochemical
Conditions: Ligand(+) format
Description: FIG. 12 Flow chart showing the two different assay formats of ligand (+) and ligand (−) used to determine receptor thermostablity.
3. Mutants tested for thermostability by heating in the absence of the agonist were re-tested using a slightly different assay where the mutants were heated in the presence of ^3H-neurotensin (Ligand(+) format in FIG. 12). […] All of these also have increased thermostability. • 5. Preferred combinations are • a. Nag7m F358A+A86L+1260A+F342A Tm 51° C. (neurotensin bound) • b. Nag7n F358A+H103A+1260A+F342A Tm 51° C. (neurotensin bound) • Wildtype NTR has a Tm of 35° C. with neurotensin bound.

thermostability, heated in the presence of 3H-neurotensin, improved thermostability:
B1
B2
B3
B4
B5
B6
B7
B8
B9
B10
B11
